Source: the DeepSol protein solubility set

Assay: soluble on expression in E. coli; label from the status in PepcDB or PDB records

MPRPKILKRATVQPSAAVPVKKSTPEKEGSRQKKTNGKENASRNLQSNLEEDLEQLGFEDETVSMAQSAIENYFMQGKSASERMNNAKSRRGRRAGNGNTEEIEEDDEISNAITDFTKCDLPGLRNYITKKDNTEFEKRLEHLADNDFGKWKLYLAAGFNILLHGVGSKRDVLTEFENELSDYTYMRVDARKDGLNVKVLLGAINENMKLNCNVKRGQSTISWARSIRRKMNSQQLILIIDNIEAPDWRSDQEAFCELLENRDSVKLIATVDHIYSTFIWNSRQLSSLSFVHITINTFEIPLQELMTGDSRLLGLDARSNQSSHTMSSLDVFWKSLAVNSQKLFRLFFQMYFDTKKPVKFWDLFNAAKDDFIASTDAALRTQLVEFKDHRVLKWTRGDDGNDQLSGIVELRLVTEFLESKNMPLDEKKDE
soluble on expression in E. coli: not soluble

MALFRGMWSVLKALGRTGVEMCAGCGGRIPSSISLVCIPKCFSSMGSYPKKPMSSYLRFSTEQLPKFKAKHPDAKLSELVRKIAALWRELPEAEKKVYEADFKAEWKAYKEAVSKYKEQLTPSQLMGMEKEARQRRLKEKALVKRRELILLGKPKRPRSAYNIYVSESFQEAKDDSAQGKLKLVNEAWKNLSPEEKQAYIQLAKDDRIRTTYEMKSWEEQMAEVGRSDLIRRSVKRSGDISEH
soluble on expression in E. coli: soluble

MGSDKIHHHHHHMIRMNISVRNLKEITDLLSTIVSEAKFKVDENGMSVTAVDPAHVAMIRLEVPKEVFSEFRSDGTEEIALDIDRLKSVIRLANSSENVGITKDKEKLKFDLGNISKSVSLLDPSTIVTPKIPNIASEYYAIIKRSDFERGLRAAEDISDSIRFVLSSEGFRATSHSESEESEMVLPKDMLSDLSCSDTIKSSYPLEYLLKFIKAVSSADSLKISFRDDYPLSIEFYLDQNPSAKIKGLFLLAPRMEQ
soluble on expression in E. coli: not soluble

MGSDKIHHHHHHMKIGFLGFGKSNRSLLKYLLNHQEAKFFVSEAKTLDGETKKFLEEHSVEYEEGGHTEKLLDCDVVYVSPGIKPDTSMIELLSSRGVKLSTELQFFLDNVDPKKVVGITGTDGKSTATALMYHVLSGRGFKTFLGGNFGTPAVEALEGEYDYYVLEMSSFQLFWSERPYLSNFLVLNISEDHLDWHSSFKEYVDSKLKPAFLQTEGDLFVYNKHIERLRNLEGVRSRKIPFWTDENFATEKELIVRGKKYTLPGNYPYQMRENILAVSVLYMEMFNELESFLELLRDFKPLPHRMEYLGQIDGRHFYNDSKATSTHAVLGALSNFDKVVLIMCGIGKKENYSLFVEKASPKLKHLIMFGEISKELAPFVGKIPHSIVENMEEAFEKAMEVSEKGDVILLSPGGASFDMYENYAKRGEHFREIFKRHGGDEV
soluble on expression in E. coli: not soluble

MRAVLGGEDDGGVGLRVIDNNEVSHGISVNFDGEITYHEQDGYPDDPSERTRAGNIHVNQARRFAKYWVYRKRGYDTIPPTENPDRIIAAAIALTPLEPETAETHLGDFYQHFQSINGTADSPVEMPEGVPEQGGGTVYQKDIYVGLEDETLGTIAADLLADPKLMELVGKSVGVGGESLVGAEYVPTFKELIAEASDRDSDSLPSLSEGLLLEATSGIHVHWDDPPGEYHTQWGDQPDLGRDPAARIEIFPFEPDSITELQAQVARHLLCQIRDCYLTMGIAPPEQFRILGHGRHEATGLYASYDIYDEYFDPNAEIDTWYVENTPEGAYEHEPANKNVQTKA
soluble on expression in E. coli: not soluble

MAHVVVLGAGLGGSIMAYELHQQLRSEDRITVVTRDPTYHFVPSNPWVAVGWRTRSHISADLAPTMQRLGIAFRTVPATRLVPAENRVELADGTALDYDYLVVATGPELAFDEIEGFGPEGHTQSICHVDHAEAAHAAFERFCENPGPIVVGAAQGASCFGPAYEFAFILDAALRRRRIRDRVPMTFVTSEPYIGHLGLDGVGDTKGLLESALRSRHIKWITSARISRVEAGTMHVEEVAEGGATKPHALPFGYAMMLPAFRGVKAVSGIEGLSNPRGFTLVDPHQRNPTFPNIFAVGVCVAIPPMGVTPVPVGVPKTGFMIESMVTATAHNIGALVRGKEPDEVATWNAVCLADFGDRGIAFIAQPQIPPRNVNWSAEGRWVHFAKIAFEKYFLRKVKLGTAEPLYEWAAMKMLGIDKLKAARKGLEHHHHHH
soluble on expression in E. coli: not soluble

GIHMGKIKRRAITEHEKRALRHYFFQLQNRSGQQDLIEWFREKFGKDISQPSVSQILSSKYSYLDNTVEKPWDVKRNRPPKYPLLEAALFEWQVQQGDDATLSGETIKRAAAILWHKIPEYQDQPVPNFSNGWLEGFRKRHILH
soluble on expression in E. coli: soluble
